Measurements: patent US20010016194A1 (priority 1999, published 2001)
Entries after “also recorded” stand apart in the source; their conditions may differ.

Columns and labels:
[1] = molecular target: T1, Raf-1 serine/threonine kinase (Homo sapiens, UniProt P04049); test: Serine/threonine kinase assay on T-cell proteins retained by FLAG-HMK-IL-2Rβ chain, with or without genistein, Histone H1 substrate; format: biochemical; conditions: genistein 10 μg/ml; T-cell proteins bound to IL-2Rβ chain
T1 construct: endogenous in cells; host or cells: human T-cell lysate (Raf-1); BL-21 pLysS bacteria (IL-2Rβ fusion)
T1 sequence (P04049 whole entry, the tested form may be a part): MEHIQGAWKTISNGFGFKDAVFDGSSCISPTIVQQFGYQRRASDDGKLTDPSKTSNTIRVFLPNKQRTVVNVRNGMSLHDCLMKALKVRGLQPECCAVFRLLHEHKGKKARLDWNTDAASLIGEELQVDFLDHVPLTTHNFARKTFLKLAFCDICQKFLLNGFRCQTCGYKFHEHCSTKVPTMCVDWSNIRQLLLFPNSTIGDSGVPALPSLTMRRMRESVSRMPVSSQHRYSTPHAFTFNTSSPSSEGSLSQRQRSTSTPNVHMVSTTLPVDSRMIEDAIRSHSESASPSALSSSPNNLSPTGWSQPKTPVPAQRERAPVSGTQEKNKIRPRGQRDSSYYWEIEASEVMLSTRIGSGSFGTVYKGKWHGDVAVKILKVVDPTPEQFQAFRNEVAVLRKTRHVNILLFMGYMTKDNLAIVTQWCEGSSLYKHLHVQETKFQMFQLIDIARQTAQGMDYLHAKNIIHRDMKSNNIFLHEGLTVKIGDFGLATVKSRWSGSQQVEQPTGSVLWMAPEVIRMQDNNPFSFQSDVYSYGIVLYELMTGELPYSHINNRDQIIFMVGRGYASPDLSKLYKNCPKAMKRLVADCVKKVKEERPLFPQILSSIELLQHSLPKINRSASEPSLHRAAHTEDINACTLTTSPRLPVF
Experimental: The kinase reaction was initiated by the addition of 1 μCi of […] and 25 μM ATP. After 30 min at 24° C., the reaction was stopped by addition of reducing SDS-PAGE sample buffer and boiling.
(ii) Kinase reaction performed in the presence of Histone-H-1. There is an increased, genistein (tyrosine kinase inhibitor)-independent phosphorylation of Histone-H-1 in T-cell lysates retained on affinity beads coated with FLAG-HMK-IL-2Rβ chain. Control affinity beads coated with proteins isolated from bacteria transformed with vector alone and exposed to T-cell lysates retain only background level of serine/threonine kinase activity. These experiments were repeated a number of times. The results of a representative experiment are shown in FIG. 5 which is a reproduction of an autoradiogram of the products of the kinase reaction performed, in the presence of Histone H-1, on anti-FLAG beads coated with the IL-2Rβ chain construct (WT) and exposed to T-cell lysates in the presence of genistein (lane 3), or in the absence of genistein (lane 2) and then subjected to SDS-PAGE and autoradiography. The control (lane 1) was carried out with the FLAG-HMK vector alone (no insert).

[2] = test system: Raf-1 / IL-2Rβ chain; conditions: IL-2 stimulation; cited from earlier work
[3] = molecular target: T2, Raf-1/14-3-3 binding to the IL-2Rb chain (Homo sapiens, UniProt P14784); test: COS cells co-transfected with IL-2Rβ chain and lck or fyn, immunoprecipitates probed for Raf-1 and 14-3-3; format: cell-based; conditions: co-transfection of COS cells, FIG. 10a
T2 construct: constructs encoding full-length or deletional mutants of the human IL-2Rβ chain; expressed in transfected cells; host or cells: COS cells, pRcCMV-IL-2Rβ, with or without lck or fyn
T2 sequence (P14784 27-551): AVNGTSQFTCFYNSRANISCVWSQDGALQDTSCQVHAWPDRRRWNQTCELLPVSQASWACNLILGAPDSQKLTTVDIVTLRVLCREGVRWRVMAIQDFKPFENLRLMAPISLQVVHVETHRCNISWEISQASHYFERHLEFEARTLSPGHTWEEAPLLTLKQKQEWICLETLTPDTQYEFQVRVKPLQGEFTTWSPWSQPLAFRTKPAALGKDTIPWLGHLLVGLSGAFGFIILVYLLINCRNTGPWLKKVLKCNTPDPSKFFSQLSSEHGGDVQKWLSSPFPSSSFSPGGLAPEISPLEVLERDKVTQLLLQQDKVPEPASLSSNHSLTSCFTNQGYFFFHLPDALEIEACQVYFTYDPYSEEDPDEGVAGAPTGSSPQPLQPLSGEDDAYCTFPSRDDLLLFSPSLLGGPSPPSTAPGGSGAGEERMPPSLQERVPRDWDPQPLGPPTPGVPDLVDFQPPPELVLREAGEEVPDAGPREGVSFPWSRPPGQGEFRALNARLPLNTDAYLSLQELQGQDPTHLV
Source text: In order to perform this examination, COS cells were transfected with IL-2Rβ chain alone, or co-transfected with lck or fyn, then […] with anti-IL-2Rβ chain antibody. The immunoprecipitates were then probed for the presence of Raf-1 and 14-3-3 proteins by immunoblotting (all procedures as detailed hereinabove).

[4] = molecular target: T3, IL-2Rβ chain/Raf-1/14-3-3 complexes (Homo sapiens, UniProt P14784); test: Pre-formed IL-2Rβ chain/(His)6 Raf-1/bacterial 14-3-3 complexes exposed to catalytically active p56lck in vitro; format: biochemical; conditions: enzymatically active kinase, FIG. 10b
T3 construct: construction of plasmid FLAG-HMK-IL-2Rβ chain cytoplasmic domain wild type (FLAG-HMK-IL-2Rβ-WT); made in house; host or cells: bacterial lysates (BL-21 pLysS for the IL-2Rβ fusion, M15 for Raf-1)
T3 sequence (P14784 266-551 limits assumed): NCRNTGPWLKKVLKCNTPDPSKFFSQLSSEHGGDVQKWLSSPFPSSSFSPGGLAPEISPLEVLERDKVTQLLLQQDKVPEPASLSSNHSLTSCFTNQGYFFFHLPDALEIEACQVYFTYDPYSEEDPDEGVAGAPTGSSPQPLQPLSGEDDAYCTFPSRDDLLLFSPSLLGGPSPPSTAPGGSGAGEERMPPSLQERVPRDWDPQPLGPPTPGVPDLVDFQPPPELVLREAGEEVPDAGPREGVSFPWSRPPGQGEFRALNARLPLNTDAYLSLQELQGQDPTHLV
Experimental: The results of this examination are shown in FIG. 10a which is a reproduction of the above immunoblot. […] In addition, a study of the dissociation of pre-formed IL-2Rβ chain/Raf-1/14-3-3 complexes by enzymatically active p56^lck was also carried out. Pre-formed IL-2Rβ chain/(His)6 Raf-1/bacterial 14-3-3 complexes were prepared (see above in respect of FIGS. a-c), exposed to catalytically active p56^lck (Upstate Biotechnology), washed and eluted with FLAG peptide. Eluates were separated on SDS-PAGE and tested for the presence of Raf-1 proteins. The results of this study are shown in FIG. 10b which is a reproduction of an SDS-PAGE gel in which is depicted the Raf-1 bands. […] Since there is no indication that p56^lck interacts with Ras-like sequence of the IL-2Rβ chain, it seems that binding of Raf-1 and p56^lck to distinct subdomains of the same A-region, co-localize kinase and its substrate for fast enzymatic reaction occurring during IL-2R activation.

effect on Raf-1/14-3-3 binding to the IL-2Rb chain [3]	dissociation of pre-formed IL-2Rβ chain/Raf-1/14-3-3 complexes [4]	Compound	effect of genistein on serine/threonine kinase activity (Histone H1 phosphorylation) [1]	dissociation of enzymatically active Raf-1 from the IL-2Rβ chain [2]
–	–	O=c1c(-c2ccc(O)cc2)coc2cc(O)cc(O)c12 [genistein]	not inhibited; also recorded: independent	completely abolished
abrogation of Raf-1/14-3-3 binding	dissociation	p56^lck: src-family protein tyrosine kinase; catalytically active enzyme from Upstate Biotechnology or co-transfected in COS cells	–	–
did not cause this dissociation	–	p59^fyn: another src-like kinase, co-transfected in COS cells	–	–
